In PMC3506619, “NADP^+ Binding to the Regulatory Subunit of Methionine Adenosyltransferase II Increases Intersubunit Binding Affinity in the Hetero-Trimer” (PLoS ONE, 2012):

Target: methionine adenosyltransferase II regulatory β subunit, wild type (human MAT2B, V1 form) (human) (UniProt Q9NZL9)
Assay: AUC; sedimentation equilibrium of purified β (0.2-0.5 mg/ml), 293 K

- stoichiometry N: 2
Substance: methionine adenosyltransferase II regulatory β subunit, wild type (human MAT2B, V1 form) (from UniProt Q9NZL9 1-334) (natural protein)
